Measured values as given in article PMC12795676, “Integrin α5β1 mediates the inhibitory effects of vasoinhibin on angiogenesis and vascular permeability [drawing 1]” (The Journal of Biological Chemistry, 2025).

Target: T1, integrin α5β1 (Homo sapiens, UniProt P05556+P08648)
T1 construct: purchased Bio-Techne
Assay: ELISA, binding to immobilized integrin α5β1
Details: 100 nM mutant, compared with Vi
Protocol: Vi ([49]) and its mutants were produced as reported ([14]). HUVECs were cultured as reported ([14], [50]).
Plates coated with 2 μg mL^−1 integrin α5β1, PAI-1, or PAI-1-uPA complex (37 °C, 10 min) were incubated with B-Vi45-51, Vi, or 100 nM ViH46A, ViR48A, or ViH46A/R48A. Competition used excess Src, alanine mutants, or THGR peptides. Detection used horseradish peroxidase antibodies and 3,3′,5,5′-tetramethylbenzidine.

T1 sequence (P08648 42-995 limits assumed): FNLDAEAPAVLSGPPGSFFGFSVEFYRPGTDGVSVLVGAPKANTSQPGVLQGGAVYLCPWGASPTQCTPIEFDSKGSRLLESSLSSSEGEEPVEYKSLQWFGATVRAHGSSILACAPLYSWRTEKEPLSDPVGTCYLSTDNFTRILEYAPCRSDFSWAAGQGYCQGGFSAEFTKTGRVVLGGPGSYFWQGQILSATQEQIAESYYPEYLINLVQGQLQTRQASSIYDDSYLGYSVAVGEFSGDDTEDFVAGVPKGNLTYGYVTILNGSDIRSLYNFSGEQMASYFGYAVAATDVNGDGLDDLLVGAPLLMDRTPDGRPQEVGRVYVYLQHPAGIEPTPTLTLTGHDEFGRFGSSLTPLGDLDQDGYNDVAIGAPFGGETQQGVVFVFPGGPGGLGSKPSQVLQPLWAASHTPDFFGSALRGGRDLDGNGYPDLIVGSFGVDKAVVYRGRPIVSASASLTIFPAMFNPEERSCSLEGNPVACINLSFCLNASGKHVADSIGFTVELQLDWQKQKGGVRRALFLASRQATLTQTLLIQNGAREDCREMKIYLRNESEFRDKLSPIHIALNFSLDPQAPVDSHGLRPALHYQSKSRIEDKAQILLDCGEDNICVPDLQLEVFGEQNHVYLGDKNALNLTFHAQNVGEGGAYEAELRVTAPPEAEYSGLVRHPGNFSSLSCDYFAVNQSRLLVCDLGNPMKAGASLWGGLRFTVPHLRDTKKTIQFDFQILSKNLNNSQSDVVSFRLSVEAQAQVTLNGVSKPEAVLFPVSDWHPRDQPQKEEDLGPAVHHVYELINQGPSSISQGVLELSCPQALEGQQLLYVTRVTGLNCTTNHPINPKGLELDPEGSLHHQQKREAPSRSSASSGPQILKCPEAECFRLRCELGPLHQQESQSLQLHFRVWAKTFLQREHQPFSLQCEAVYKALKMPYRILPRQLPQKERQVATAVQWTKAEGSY
T1 sequence (P05556 21-728 limits assumed): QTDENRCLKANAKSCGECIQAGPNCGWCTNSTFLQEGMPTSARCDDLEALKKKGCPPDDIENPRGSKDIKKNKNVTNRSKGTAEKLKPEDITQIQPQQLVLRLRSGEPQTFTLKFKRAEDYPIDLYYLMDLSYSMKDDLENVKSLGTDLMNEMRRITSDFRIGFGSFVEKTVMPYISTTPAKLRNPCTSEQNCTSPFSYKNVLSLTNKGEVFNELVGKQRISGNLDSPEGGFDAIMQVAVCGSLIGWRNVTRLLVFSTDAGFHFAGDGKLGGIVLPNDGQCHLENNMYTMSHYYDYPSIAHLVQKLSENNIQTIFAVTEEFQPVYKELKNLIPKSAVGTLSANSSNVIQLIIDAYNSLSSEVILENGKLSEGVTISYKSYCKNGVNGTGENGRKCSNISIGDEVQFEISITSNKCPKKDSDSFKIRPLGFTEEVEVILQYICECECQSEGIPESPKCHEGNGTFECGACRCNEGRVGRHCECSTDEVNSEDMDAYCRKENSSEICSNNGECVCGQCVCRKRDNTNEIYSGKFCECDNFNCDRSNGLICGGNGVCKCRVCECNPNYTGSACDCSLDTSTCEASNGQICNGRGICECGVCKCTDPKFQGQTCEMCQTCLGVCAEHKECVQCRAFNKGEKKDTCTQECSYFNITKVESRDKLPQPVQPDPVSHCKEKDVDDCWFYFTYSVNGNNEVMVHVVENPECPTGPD

Row | Integrin α5β1 binding of Vi mutants | Molecule
1 | reduced integrin binding | Vi-H46A: Vi mutant H46A (protein) LPICPGGAARCQVTLRDLFDRAVVLSHYIHNLSSEMFSEFDKRYTAGRGFITKAINSCHTSSLATPEDKEQAQQMNQKDFLSLIVSILRSWNEPLYHLVTEVRGMQEAPEAILSKAVEIEEQTKRLLEGMELIVSQVHPETKENEIYPVWSGLPSLQMADEESRLSAYYNLLHCLRRDSHKIDNYLKLLKCRIIHNNNC
2 | reduced integrin binding | Vi-H46A/R48A: Vi double mutant H46A/R48A (protein) LPICPGGAARCQVTLRDLFDRAVVLSHYIHNLSSEMFSEFDKRYTAGAGFITKAINSCHTSSLATPEDKEQAQQMNQKDFLSLIVSILRSWNEPLYHLVTEVRGMQEAPEAILSKAVEIEEQTKRLLEGMELIVSQVHPETKENEIYPVWSGLPSLQMADEESRLSAYYNLLHCLRRDSHKIDNYLKLLKCRIIHNNNC
3 | reduced integrin binding | Vi-R48A: Vi mutant R48A (protein) LPICPGGAARCQVTLRDLFDRAVVLSHYIHNLSSEMFSEFDKRYTHGAGFITKAINSCHTSSLATPEDKEQAQQMNQKDFLSLIVSILRSWNEPLYHLVTEVRGMQEAPEAILSKAVEIEEQTKRLLEGMELIVSQVHPETKENEIYPVWSGLPSLQMADEESRLSAYYNLLHCLRRDSHKIDNYLKLLKCRIIHNNNC
